The source of these data is article PMC5101663.

The experiment addresses Acinetobacter phage AP205 SpyTag-VLP (one SpyTag per VLP subunit) (Acinetobacter phage AP205). Nature of the experiment: covalent conjugation shown by reduced SDS-PAGE with densitometry; antigen and Spy-VLP mixed at 1.5:1 molar ratio (antigen per VLP subunit), overnight at 4 °C in PBS, 0.2% Polysorbate 80, pH 7.2; covalent SpyTag/SpyCatcher bond.

On to “HIS-CSP-SpyCatcher antigen (from UniProt Q7K740 25-383)”, for which the stoichiometry N (CSP antigens per VLP) came to 112.
